Among the data in patent publication US20040265963A1 are fold lower fifty percent endpoint concentration against unphosphorylated JAK2 WT and inhibition of 32P incorporation into JAK2/IFNGR-1 (Tkip values, retold here.

Test [1] has as its target T1, biotinylated phosphorylated JAK2 WT peptide (p-JAK2 WT) (human (the JAK2 WT sequence is the same for both mice and humans)).
T1 chain: LPQDKEYYKVKEP
As to the kind of experiment: solid phase binding assay, biotinylated peptide on immobilized Tkip (FIG. 4).

For test [2], the target named is Recombinant human JAK2 immobilized on agarose beads (human), O60674. As to the kind of experiment: cell-based or functional assay.
Sequence of Recombinant human JAK2 immobilized on agarose beads (human), O60674 (O60674 whole entry): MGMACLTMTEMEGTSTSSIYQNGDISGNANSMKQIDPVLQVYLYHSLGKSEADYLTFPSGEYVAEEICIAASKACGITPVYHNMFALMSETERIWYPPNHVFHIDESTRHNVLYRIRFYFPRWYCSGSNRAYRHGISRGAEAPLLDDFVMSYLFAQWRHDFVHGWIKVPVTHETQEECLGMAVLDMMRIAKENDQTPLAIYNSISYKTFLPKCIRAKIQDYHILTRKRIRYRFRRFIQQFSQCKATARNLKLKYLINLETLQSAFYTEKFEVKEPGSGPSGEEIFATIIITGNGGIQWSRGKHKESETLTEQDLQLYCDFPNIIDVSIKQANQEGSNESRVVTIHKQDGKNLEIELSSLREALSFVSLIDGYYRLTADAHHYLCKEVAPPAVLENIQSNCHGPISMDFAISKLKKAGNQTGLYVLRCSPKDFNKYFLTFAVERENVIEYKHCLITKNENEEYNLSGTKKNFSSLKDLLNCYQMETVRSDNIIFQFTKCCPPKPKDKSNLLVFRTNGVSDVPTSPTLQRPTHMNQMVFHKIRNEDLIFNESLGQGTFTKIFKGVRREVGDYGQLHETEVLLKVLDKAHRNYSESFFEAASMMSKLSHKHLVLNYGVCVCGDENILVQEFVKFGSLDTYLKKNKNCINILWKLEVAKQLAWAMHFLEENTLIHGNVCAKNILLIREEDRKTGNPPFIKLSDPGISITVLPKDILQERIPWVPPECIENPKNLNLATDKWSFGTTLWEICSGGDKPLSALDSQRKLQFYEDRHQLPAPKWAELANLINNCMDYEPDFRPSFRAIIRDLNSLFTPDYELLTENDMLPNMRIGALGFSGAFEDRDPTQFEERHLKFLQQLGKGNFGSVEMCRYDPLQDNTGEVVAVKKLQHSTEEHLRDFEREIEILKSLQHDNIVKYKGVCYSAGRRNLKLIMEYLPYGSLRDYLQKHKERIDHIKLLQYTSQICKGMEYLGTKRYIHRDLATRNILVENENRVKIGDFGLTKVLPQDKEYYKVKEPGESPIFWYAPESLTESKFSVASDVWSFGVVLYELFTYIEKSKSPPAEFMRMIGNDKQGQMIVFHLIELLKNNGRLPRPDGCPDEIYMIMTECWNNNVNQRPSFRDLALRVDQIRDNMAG

For WLVFFVIFYFFR (modifications not checked) [Tkip (tyrosine kinase inhibitor peptide), …], the fold lower fifty percent endpoint concentration against unphosphorylated JAK2 WT in test [1] is 9 fold. For the same molecule, the inhibition of 32P incorporation into JAK2/IFNGR-1 (Tkip at 50 µM) in test [2] was more than 95%.
